{"source": "patent US20100158924A1", "about": "“Expression of the cysteine protease legumain in vascular and inflammatory diseases” (Wyeth, LLC, priority 2006, published 2010)", "key": {"mouse legumain": {"biological_target": "T1, mouse legumain (Mus musculus, UniProt O89017)", "T1 construct": "expressed in transfected cells; host or cells: HEK293 cells infected with adenovirus", "T1 sequence (O89017 18-325)": "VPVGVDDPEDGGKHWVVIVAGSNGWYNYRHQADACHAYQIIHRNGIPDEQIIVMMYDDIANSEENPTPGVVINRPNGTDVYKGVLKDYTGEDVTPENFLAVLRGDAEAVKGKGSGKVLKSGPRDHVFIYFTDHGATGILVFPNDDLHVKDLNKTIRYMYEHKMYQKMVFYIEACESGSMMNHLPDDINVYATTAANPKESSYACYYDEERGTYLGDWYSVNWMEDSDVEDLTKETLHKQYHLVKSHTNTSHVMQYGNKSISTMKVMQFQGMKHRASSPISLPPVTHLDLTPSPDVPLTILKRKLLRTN", "experiment": "HEK293 cell-surface legumain activity assay (Z-AAN-MCA hydrolysis)", "format": "cell-based", "conditions": "inhibitor at 100 nM, live HEK293 cells overexpressing mouse legumain, pH 5.8, FIG. 7", "protocol": "HEK293 cells were plated in 96-well black tissue culture plate (BD Biosciences) and infected with adenovirus expressing mouse legumain at MOI of 10. 24 hours post infection, the cells were washed once with legumain assay buffer [39.5 mM citric acid, 125 mM Na2HPO4 (pH 5.8), 1 mM EDTA, 0.8% NaCl], and 50 μl of assay buffer containing 10 nM of the substrate Z-AAN-MCA (Peptide Institute, Louisville, Ky.) was added to each well. The protease inhibitors cystatin C(R&D Systems, Minneapolis, Minn.) or E64 (Sigma) were included in the assay buffer at a concentration of 100 nM. The plates were incubated at 37° C. for 10 min and measured for fluorescence in a VICTOR 3™ fluorescence plate reader (PerkinElmer, Wellesley, Mass.) using an excitation filter of 360 nm and an emission filter of 460 nm. Repeated measurements were carried out once every 5 min over a period of 20 min at room temperature. The increase of fluorescence over time was plotted."}, "legumain": {"test_system": "legumain", "conditions": "background literature; cited from earlier work"}, "primary human monocytes": {"test_system": "primary human monocytes", "experiment": "Human monocytes migration assay (modified Boyden chamber)", "format": "cell-based", "conditions": "for chemoattractant function: data not shown", "protocol": "Human monocytes were isolated from the blood of healthy donors using the negative selection method with the Monocyte Isolation Kit (Miltenyi Biotech) according to manufacturer's instructions. The purity of isolated monocytes was confirmed by flow cytometry on CD 14-stained cells. Cells were tested in a modified Boyden chamber assay using Multi Screen 96-well filtration plate (Millipore, 5.0 μm pore size). Serum-starved monocytes were added to the top chamber (20,000 cells/well), and serum-free culture medium was added to the bottom chamber with or without purified legumain (R&D Systems). VEGF (R&D Systems) was used as a positive control. Cells that migrated into the bottom chamber were quantified using a luminescent cell viability assay (CellTiter-Glo® Assay, Promega, Madison, Wis.) at 2 hours."}, "HUVECs [1]": {"test_system": "HUVECs", "experiment": "In vitro wound-healing assay, HUVECs", "format": "cell-based, human", "protocol": "(§1) HEK293 cells (ATCC, Manassas, Va.) used at passage 10 and HUVECs (Cambrex, Walkersville, Md.) used at passage 3 were seeded onto single-chamber slides (Lab-Tek cat# 177410, Campbell, Calif.). HEK293 cells were cultured to >80% confluence in DMEM supplemented with 10% FBS and 1% penicillin/streptomycin/L-glutamine (Cat# 10378-016, Gibco, Invitrogen, Carlsbad, Calif.), and HUVECs were grown to >90% confluence in EGM (Cat# CC-3124, Cambrex, East Rutherford, N.J.). After washing the cells in serum-free medium, the monolayers were mechanically wounded using a cell scraper (Cat# 3010, Costar [Corning], Fisher Scientific, Pittsburgh, Pa.) to obtain a rectangular denuded area of 2.0×1.7 cm^2. Wounded cells were then incubated in serum-free medium supplemented with 0.05% delipidized BSA (BD Biosciences, Bedford, Mass.) and with VEGF (10 ng/mL, R&D Systems, Minneapolis, Minn.) or legumain (10 ng/mL or 25 ng/mL, R&D Systems, Minneapolis, Minn.) for 24 hours (HEK293 cells) or 20 hours (HUVECs). Wound healing was quantified by measuring the number of cells present in the area of the initial wound using a luminescent cell viability assay (CellTiter-Glo® Assay, Promega, Madison, Wis.)."}, "HUVECs [2]": {"test_system": "HUVECs", "experiment": "Modified Boyden chamber Matrigel invasion assay, HUVECs", "format": "cell-based, human", "source_text": "In a modified Boyden chamber assay, 25,000 serum starved HUVECs loaded into the top chamber were allowed to invade a Matrigel coated PET membrane ([…], Becton Dickinson, BioCoat Angiogenesis System: Endothelial Cell Invasion) in response to purified legumain added to the bottom chamber. Cells that invaded through the Matrigel matrix were quantified using a luminescent cell viability assay (CellTiter-Glo® Assay, Promega, Madison, Wis.). VEGF was used a positive control."}, "HEK293 cells": {"test_system": "HEK293 cells", "experiment": "In vitro wound-healing assay, HEK293 cells", "format": "cell-based, human", "conditions": "legumain at 10 ng/mL and 25 ng/mL, 24 hours, p<0.05, FIG. 8", "protocol": "as §1"}}, "note": "* marks the point of attachment. Fmoc = O=C(OCC1c2ccccc2-c2ccccc21)*", "data": [{"molecule": "CC(C)C[C@H](NC(=O)[C@H]1O[C@@H]1C(=O)O)C(=O)NCCCCN=C(N)N", "note": "(relative stereo) [E64, trans-epoxysuccinyl-L-leucylamido-(4-guanidino)butane, reference compound]", "values": [{"measurement": "inhibition of cell-surface legumain activity", "setting": "mouse legumain", "value": "not"}, {"measurement": "effect on legumain activity", "setting": "legumain", "value": "unaffected"}]}, {"molecule": "[Cu+2]", "note": "[Cu2+]", "values": [{"measurement": "effect on legumain activity", "setting": "legumain", "value": "inhibition"}]}, {"molecule": "CC(=O)N[C@@H](CC(C)C)C(=O)N[C@@H](CC(C)C)C(=O)N[C@H](C=O)CCCNC(=N)N", "note": "[leupeptin]", "values": [{"measurement": "effect on legumain activity", "setting": "legumain", "value": "unaffected"}]}, {"molecule": "VEGF [reference compound]", "values": [{"measurement": "number of migrated cells compared with legumain at 25 ng/mL", "setting": "primary human monocytes; VEGF at 10 ng/mL, positive control", "value": "similar"}, {"measurement": "increase in migration compared with legumain at 25 ng/mL", "setting": "HUVECs [1]; VEGF at 10 ng/mL, positive control, FIG. 9", "value": "same extent"}, {"measurement": "invasion response compared with 25 ng/mL legumain", "setting": "HUVECs [2]; 10 ng/mL VEGF, 22 hour period", "value": "similar"}]}, {"molecule": "O=S(=O)(O)c1cc[c]([Hg][Cl])cc1", "note": "[p-chloromercuribenzene-sulfonic acid]", "values": [{"measurement": "effect on legumain activity", "setting": "legumain", "value": "inhibition"}]}, {"molecule": "C[C@H](NC(=O)[C@H](Cc1ccccc1)NC(=O)OCc1ccccc1)C(=O)C=[N+]=[N-]", "note": "[Z-Phe-Ala-CHN2]", "values": [{"measurement": "effect on legumain activity", "setting": "legumain", "value": "unaffected"}]}, {"molecule": "[Hg+2]", "note": "[Hg2+]", "values": [{"measurement": "effect on legumain activity", "setting": "legumain", "value": "inhibition"}]}, {"molecule": "Fmoc-AENK-NH2", "values": [{"measurement": "effect on legumain activity", "setting": "legumain", "value": "inhibitor"}]}, {"molecule": "Cc1cccc(C)c1C(=O)OCC(=O)C(CC(N)=O)NC(=O)OCc1ccccc1", "note": "(stereo not shown) [MV026630, 2,6-dimethyl-benzoic acid 3-benzyloxycarbonylamino-4-carbamoyl-2-oxo-butyl ester]", "values": [{"measurement": "effect on legumain activity", "setting": "legumain", "value": "inhibit"}]}, {"molecule": "ovocystatin: cystatin reported to inhibit legumain (protein, UniProt P01038 24-139, looked up) Cystatin: SEDRSRLLGAPVPVDENDEGLQRALQFAMAEYNRASNDKYSSRVVRVISAKRQLVSGIKYILQVEIGRTTCPKSSGDLQSCEFHDEPEMAKYTTCTFVVYSIPWLNQIKLLESKCQ", "values": [{"measurement": "effect on legumain activity", "setting": "legumain", "value": "inhibited"}]}, {"molecule": "heat-denatured form: heat-denatured form of legumain (protein, UniProt Q99538 18-323, looked up, heat-denatured, heat-denatured form of legumain) Legumain: VPIDDPEDGGKHWVVIVAGSNGWYNYRHQADACHAYQIIHRNGIPDEQIVVMMYDDIAYSEDNPTPGIVINRPNGTDVYQGVPKDYTGEDVTPQNFLAVLRGDAEAVKGIGSGKVLKSGPQDHVFIYFTDHGSTGILVFPNEDLHVKDLNETIHYMYKHKMYRKMVFYIEACESGSMMNHLPDNINVYATTAANPRESSYACYYDEKRSTYLGDWYSVNWMEDSDVEDLTKETLHKQYHLVKSHTNTSHVMQYGNKTISTMKVMQFQGMKRKASSPVPLPPVTHLDLTPSPDVPLTIMKRKLMNTN", "values": [{"measurement": "chemoattractant function", "setting": "primary human monocytes", "value": "retain the chemoattractant function"}]}, {"molecule": "legumain: purified proform of the lysosomal cysteine protease legumain (R&D Systems), tested as chemoattractant (protein) VPVGVDDPEDGGKHWVVIVAGSNGWYNYRHQADACHAYQIIHRNGIPDEQIIVMMYDDIANSEENPTPGVVINRPNGTDVYKGVLKDYTGEDVTPENFLAVLRGDAEAVKGKGSGKVLKSGPRDHVFIYFTDHGATGILVFPNDDLHVKDLNKTIRYMYEHKMYQKMVFYIEACESGSMMNHLPDDINVYATTAANPKESSYACYYDEERGTYLGDWYSVNWMEDSDVEDLTKETLHKQYHLVKSHTNTSHVMQYGNKSISTMKVMQFQGMKHRASSPISLPPVTHLDLTPSPDVPLTILKRKLLRTN", "values": [{"measurement": "fold increase in migration of monocytes relative to control", "setting": "primary human monocytes; 25 ng/mL, 2 hours", "value": 2.3, "unit": "fold"}, {"measurement": "migration of human monocytes towards legumain", "setting": "primary human monocytes; Boyden chamber, 2 hours, FIG. 6", "value": "dose-dependent increase"}, {"measurement": "chemoattractant function", "setting": "primary human monocytes", "value": "retain the chemoattractant function"}, {"measurement": "minimal effective concentration of legumain", "setting": "primary human monocytes; migration of primary human monocytes, Boyden chamber, 2 hours", "value": 25, "unit": "ng/mL"}, {"measurement": "cell migration relative to control", "setting": "HEK293 cells", "value": "significant increase in cell migration"}, {"measurement": "cell migration relative to control", "setting": "HUVECs [1]; legumain at 25 ng/mL, 20 hours, p<0.05, FIG. 9", "value": "significant increase in cell migration"}, {"measurement": "number of cells invading a Matrigel coated membrane", "setting": "HUVECs [2]; 22 hour period, FIG. 10", "value": "dose-dependent increase"}, {"measurement": "cell invasion relative to control", "setting": "HUVECs [2]; legumain at 25 ng/mL, p<0.05, FIG. 10", "value": "significant increase in cell invasion"}]}, {"molecule": "cystatin M: cystatin reported to inhibit legumain (protein, UniProt Q15828 29-149, looked up) Cystatin-M: RPQERMVGELRDLSPDDPQVQKAAQAAVASYNMGSNSIYYFRDTHIIKAQSQLVAGIKYFLTMEMGSTDCRKTRVTGDHVDLTTCPLAAGAQQEKLRCDFEVLVVPWQNSSQLLKHNCVQM", "values": [{"measurement": "effect on legumain activity", "setting": "legumain", "value": "inhibited"}]}, {"molecule": "cystatin C: protease inhibitor cystatin C (R&D Systems) (protein, UniProt P01034 27-146, looked up) Cystatin-C: SSPGKPPRLVGGPMDASVEEEGVRRALDFAVGEYNKASNDMYHSRALQVVRARKQIVAGVNYFLDVELGRTTCTKTQPNLDNCPFHDQPHLKRKAFCSFQIYAVPWQGTMTLSKSTCQDA", "values": [{"measurement": "inhibition of cell-surface legumain activity", "setting": "mouse legumain", "value": "inhibited"}, {"measurement": "effect on legumain activity", "setting": "legumain", "value": "inhibited"}]}]}
